Measured values taken from article PMC8557471.

Target: A. thaliana DCL1 DSRM1 (A. thaliana)
Test: BLI

Substance: A. thaliana HYL1 DSRM2 (domain or fragment)
- fold higher affinity than HYL1 DSRM1 for the same target: 3.4 fold
